{"source": "the supplement of paper PMC7125110", "parents": {"B1": {"name": "glmS ribozyme (parent)", "chain": "AUAAAAGCGCCAGAACUACAGAAAUGUAGUUGACGAGGAGGAGGUUUAUCGAAUUUUCGGCGGAUGCCUCCAAA"}}, "conditions_in_all_cases": "with glucosamine-6-phosphate", "key": {"glucosamine-6-phosphate [1]": {"variants_of": "B1", "experiment": "kcat; higher = faster cleavage; RNA array", "summary_of_the_method": "(§1)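 On sequenced MiSeq chips, barcoded ribozyme variants were made in situ by E. coli RNA polymerase and followed at 37 °C through a hybridised Cy3 probe. Glucosamine-6-phosphate was flowed in at 40 μM to 10 mM in HEPES/KCl/Mg(OAc)2 buffer. Exponential fits to normalised per-tile medians gave kobs, and weighted Michaelis–Menten fits gave kcat and KM.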"}, "glucosamine-6-phosphate [2]": {"variants_of": "B1", "experiment": "KM; higher = weaker cofactor use; RNA array", "summary_of_the_method": "as §1"}, "glucosamine-6-phosphate [3]": {"variants_of": "B1", "experiment": "self-cleavage kobs at 40 uM GlcN6P; higher = faster cleavage; RNA array", "summary_of_the_method": "as §1"}, "glucosamine-6-phosphate [4]": {"variants_of": "B1", "experiment": "self-cleavage kobs at 160 uM GlcN6P; higher = faster cleavage; RNA array", "summary_of_the_method": "as §1"}, "glucosamine-6-phosphate [5]": {"variants_of": "B1", "experiment": "self-cleavage kobs at 640 uM GlcN6P; higher = faster cleavage; RNA array", "summary_of_the_method": "as §1"}, "glucosamine-6-phosphate [6]": {"variants_of": "B1", "experiment": "self-cleavage kobs at 2500 uM GlcN6P; higher = faster cleavage; RNA array", "summary_of_the_method": "as §1"}, "glucosamine-6-phosphate [7]": {"variants_of": "B1", "experiment": "self-cleavage kobs at 10000 uM GlcN6P; higher = faster cleavage; RNA array", "summary_of_the_method": "as §1"}}, "note": "± gives the standard error. For some assays here: Fewer inactive variants are shown than the library holds."}
{"variant": "A64G U69G C71A", "values": [{"measurement": "kcat", "setting": "glucosamine-6-phosphate [1]", "value": "2.3e-05 ± 7.7e-06", "unit": "s⁻¹"}]}
{"variant": "U31A G40A", "values": [{"measurement": "kcat", "setting": "glucosamine-6-phosphate [1]", "value": "0.00231 ± 0.00021", "unit": "s⁻¹"}, {"measurement": "KM", "setting": "glucosamine-6-phosphate [2]", "value": "1250 ± 170", "unit": "µM"}, {"measurement": "self-cleavage kobs at 40 uM GlcN6P", "setting": "glucosamine-6-phosphate [3]", "value": "7.32e-05 ± 1.2e-05", "unit": "s⁻¹"}, {"measurement": "self-cleavage kobs at 160 uM GlcN6P", "setting": "glucosamine-6-phosphate [4]", "value": "0.000266 ± 0.00011", "unit": "s⁻¹"}, {"measurement": "self-cleavage kobs at 640 uM GlcN6P", "setting": "glucosamine-6-phosphate [5]", "value": "0.000717 ± 0.00016", "unit": "s⁻¹"}, {"measurement": "self-cleavage kobs at 2500 uM GlcN6P", "setting": "glucosamine-6-phosphate [6]", "value": "0.00206 ± 0.00066", "unit": "s⁻¹"}, {"measurement": "self-cleavage kobs at 10000 uM GlcN6P", "setting": "glucosamine-6-phosphate [7]", "value": "0.00201 ± 0.00033", "unit": "s⁻¹"}]}
{"variant": "A14C A33U", "values": [{"measurement": "kcat", "setting": "glucosamine-6-phosphate [1]", "value": "3.55e-05 ± 2.4e-06", "unit": "s⁻¹"}, {"measurement": "KM", "setting": "glucosamine-6-phosphate [2]", "value": "994 ± 450", "unit": "µM"}, {"measurement": "self-cleavage kobs at 10000 uM GlcN6P", "setting": "glucosamine-6-phosphate [7]", "value": "3.21e-05 ± 7.6e-06", "unit": "s⁻¹"}]}
{"variant": "A15G U55C", "values": [{"measurement": "kcat", "setting": "glucosamine-6-phosphate [1]", "value": "0.0256 ± 0.0046", "unit": "s⁻¹"}, {"measurement": "KM", "setting": "glucosamine-6-phosphate [2]", "value": "1870 ± 410", "unit": "µM"}, {"measurement": "self-cleavage kobs at 40 uM GlcN6P", "setting": "glucosamine-6-phosphate [3]", "value": "0.000564 ± 7.9e-05", "unit": "s⁻¹"}, {"measurement": "self-cleavage kobs at 160 uM GlcN6P", "setting": "glucosamine-6-phosphate [4]", "value": "0.00212 ± 0.00033", "unit": "s⁻¹"}, {"measurement": "self-cleavage kobs at 640 uM GlcN6P", "setting": "glucosamine-6-phosphate [5]", "value": "0.0055 ± 0.0011", "unit": "s⁻¹"}, {"measurement": "self-cleavage kobs at 2500 uM GlcN6P", "setting": "glucosamine-6-phosphate [6]", "value": "0.0125 ± 0.005", "unit": "s⁻¹"}, {"measurement": "self-cleavage kobs at 10000 uM GlcN6P", "setting": "glucosamine-6-phosphate [7]", "value": "0.0242 ± 0.0051", "unit": "s⁻¹"}]}
{"variant": "C58U A64C C70A", "values": [{"measurement": "kcat", "setting": "glucosamine-6-phosphate [1]", "value": "1.83e-05 ± 1.5e-06", "unit": "s⁻¹"}, {"measurement": "KM", "setting": "glucosamine-6-phosphate [2]", "value": "363 ± 120", "unit": "µM"}, {"measurement": "self-cleavage kobs at 40 uM GlcN6P", "setting": "glucosamine-6-phosphate [3]", "value": "< 1e-05", "unit": "s⁻¹"}]}
{"variant": "G13A C70U", "values": [{"measurement": "kcat", "setting": "glucosamine-6-phosphate [1]", "value": "0.000795 ± 0.00019", "unit": "s⁻¹"}, {"measurement": "KM", "setting": "glucosamine-6-phosphate [2]", "value": "2410 ± 870", "unit": "µM"}, {"measurement": "self-cleavage kobs at 160 uM GlcN6P", "setting": "glucosamine-6-phosphate [4]", "value": "7.83e-05 ± 1.4e-05", "unit": "s⁻¹"}, {"measurement": "self-cleavage kobs at 640 uM GlcN6P", "setting": "glucosamine-6-phosphate [5]", "value": "0.000154 ± 1.7e-05", "unit": "s⁻¹"}, {"measurement": "self-cleavage kobs at 2500 uM GlcN6P", "setting": "glucosamine-6-phosphate [6]", "value": "0.000388 ± 6.1e-05", "unit": "s⁻¹"}, {"measurement": "self-cleavage kobs at 10000 uM GlcN6P", "setting": "glucosamine-6-phosphate [7]", "value": "0.000676 ± 9.5e-05", "unit": "s⁻¹"}]}
{"variant": "U65G C67U", "values": [{"measurement": "kcat", "setting": "glucosamine-6-phosphate [1]", "value": "0.00306 ± 0.00057", "unit": "s⁻¹"}, {"measurement": "KM", "setting": "glucosamine-6-phosphate [2]", "value": "3590 ± 950", "unit": "µM"}, {"measurement": "self-cleavage kobs at 40 uM GlcN6P", "setting": "glucosamine-6-phosphate [3]", "value": "3.92e-05 ± 7.9e-06", "unit": "s⁻¹"}, {"measurement": "self-cleavage kobs at 160 uM GlcN6P", "setting": "glucosamine-6-phosphate [4]", "value": "0.000142 ± 1.8e-05", "unit": "s⁻¹"}, {"measurement": "self-cleavage kobs at 640 uM GlcN6P", "setting": "glucosamine-6-phosphate [5]", "value": "0.000459 ± 5.7e-05", "unit": "s⁻¹"}, {"measurement": "self-cleavage kobs at 2500 uM GlcN6P", "setting": "glucosamine-6-phosphate [6]", "value": "0.00101 ± 0.00014", "unit": "s⁻¹"}, {"measurement": "self-cleavage kobs at 10000 uM GlcN6P", "setting": "glucosamine-6-phosphate [7]", "value": "0.00248 ± 0.00025", "unit": "s⁻¹"}]}
{"variant": "A15U G44A", "values": [{"measurement": "kcat", "setting": "glucosamine-6-phosphate [1]", "value": "3.69e-05 ± 5.2e-07", "unit": "s⁻¹"}, {"measurement": "KM", "setting": "glucosamine-6-phosphate [2]", "value": "2790 ± 140", "unit": "µM"}, {"measurement": "self-cleavage kobs at 10000 uM GlcN6P", "setting": "glucosamine-6-phosphate [7]", "value": "2.88e-05 ± 1.1e-05", "unit": "s⁻¹"}]}
{"variant": "G59U C70U", "values": [{"measurement": "kcat", "setting": "glucosamine-6-phosphate [1]", "value": "9.84e-05 ± 6.1e-06", "unit": "s⁻¹"}, {"measurement": "KM", "setting": "glucosamine-6-phosphate [2]", "value": "899 ± 210", "unit": "µM"}, {"measurement": "self-cleavage kobs at 640 uM GlcN6P", "setting": "glucosamine-6-phosphate [5]", "value": "4.56e-05 ± 9.2e-06", "unit": "s⁻¹"}, {"measurement": "self-cleavage kobs at 2500 uM GlcN6P", "setting": "glucosamine-6-phosphate [6]", "value": "6.69e-05 ± 8.1e-06", "unit": "s⁻¹"}, {"measurement": "self-cleavage kobs at 10000 uM GlcN6P", "setting": "glucosamine-6-phosphate [7]", "value": "9.36e-05 ± 8.8e-06", "unit": "s⁻¹"}]}
{"variant": "G40U U55A", "values": [{"measurement": "kcat", "setting": "glucosamine-6-phosphate [1]", "value": "0.00366 ± 0.0016", "unit": "s⁻¹"}, {"measurement": "self-cleavage kobs at 40 uM GlcN6P", "setting": "glucosamine-6-phosphate [3]", "value": "0.00026 ± 5.9e-05", "unit": "s⁻¹"}, {"measurement": "self-cleavage kobs at 160 uM GlcN6P", "setting": "glucosamine-6-phosphate [4]", "value": "0.000217 ± 5.8e-05", "unit": "s⁻¹"}, {"measurement": "self-cleavage kobs at 640 uM GlcN6P", "setting": "glucosamine-6-phosphate [5]", "value": "0.000764 ± 0.00022", "unit": "s⁻¹"}, {"measurement": "self-cleavage kobs at 2500 uM GlcN6P", "setting": "glucosamine-6-phosphate [6]", "value": "0.00204 ± 0.00041", "unit": "s⁻¹"}, {"measurement": "self-cleavage kobs at 10000 uM GlcN6P", "setting": "glucosamine-6-phosphate [7]", "value": "0.00304 ± 0.00059", "unit": "s⁻¹"}]}
{"variant": "U54C C70U", "values": [{"measurement": "kcat", "setting": "glucosamine-6-phosphate [1]", "value": "0.00794 ± 0.0014", "unit": "s⁻¹"}, {"measurement": "KM", "setting": "glucosamine-6-phosphate [2]", "value": "507 ± 130", "unit": "µM"}, {"measurement": "self-cleavage kobs at 40 uM GlcN6P", "setting": "glucosamine-6-phosphate [3]", "value": "0.000628 ± 8e-05", "unit": "s⁻¹"}, {"measurement": "self-cleavage kobs at 160 uM GlcN6P", "setting": "glucosamine-6-phosphate [4]", "value": "0.00162 ± 0.00035", "unit": "s⁻¹"}, {"measurement": "self-cleavage kobs at 640 uM GlcN6P", "setting": "glucosamine-6-phosphate [5]", "value": "0.00435 ± 0.0008", "unit": "s⁻¹"}, {"measurement": "self-cleavage kobs at 10000 uM GlcN6P", "setting": "glucosamine-6-phosphate [7]", "value": "0.00879 ± 0.0016", "unit": "s⁻¹"}]}
{"variant": "A48U A53G", "values": [{"measurement": "kcat", "setting": "glucosamine-6-phosphate [1]", "value": "0.000396 ± 3.6e-05", "unit": "s⁻¹"}, {"measurement": "KM", "setting": "glucosamine-6-phosphate [2]", "value": "1560 ± 290", "unit": "µM"}, {"measurement": "self-cleavage kobs at 160 uM GlcN6P", "setting": "glucosamine-6-phosphate [4]", "value": "2.96e-05 ± 1.2e-05", "unit": "s⁻¹"}, {"measurement": "self-cleavage kobs at 640 uM GlcN6P", "setting": "glucosamine-6-phosphate [5]", "value": "0.000127 ± 1.9e-05", "unit": "s⁻¹"}, {"measurement": "self-cleavage kobs at 2500 uM GlcN6P", "setting": "glucosamine-6-phosphate [6]", "value": "0.000229 ± 3.5e-05", "unit": "s⁻¹"}, {"measurement": "self-cleavage kobs at 10000 uM GlcN6P", "setting": "glucosamine-6-phosphate [7]", "value": "0.000349 ± 4.7e-05", "unit": "s⁻¹"}]}
{"variant": "G29U U45C", "values": [{"measurement": "kcat", "setting": "glucosamine-6-phosphate [1]", "value": "0.000348 ± 1.1e-05", "unit": "s⁻¹"}, {"measurement": "KM", "setting": "glucosamine-6-phosphate [2]", "value": "2130 ± 200", "unit": "µM"}, {"measurement": "self-cleavage kobs at 640 uM GlcN6P", "setting": "glucosamine-6-phosphate [5]", "value": "7.89e-05 ± 3.4e-05", "unit": "s⁻¹"}, {"measurement": "self-cleavage kobs at 2500 uM GlcN6P", "setting": "glucosamine-6-phosphate [6]", "value": "0.000204 ± 0.0001", "unit": "s⁻¹"}, {"measurement": "self-cleavage kobs at 10000 uM GlcN6P", "setting": "glucosamine-6-phosphate [7]", "value": "0.000286 ± 4.9e-05", "unit": "s⁻¹"}]}
{"variant": "A15G G59U C67U", "values": [{"measurement": "kcat", "setting": "glucosamine-6-phosphate [1]", "value": "5.74e-05 ± 6.3e-06", "unit": "s⁻¹"}, {"measurement": "KM", "setting": "glucosamine-6-phosphate [2]", "value": "2230 ± 1000", "unit": "µM"}, {"measurement": "self-cleavage kobs at 10000 uM GlcN6P", "setting": "glucosamine-6-phosphate [7]", "value": "4.69e-05 ± 1.5e-05", "unit": "s⁻¹"}]}
{"variant": "G40U U49G", "values": [{"measurement": "kcat", "setting": "glucosamine-6-phosphate [1]", "value": "8.53e-05 ± 3.1e-05", "unit": "s⁻¹"}, {"measurement": "self-cleavage kobs at 2500 uM GlcN6P", "setting": "glucosamine-6-phosphate [6]", "value": "9.77e-05 ± 2e-05", "unit": "s⁻¹"}, {"measurement": "self-cleavage kobs at 10000 uM GlcN6P", "setting": "glucosamine-6-phosphate [7]", "value": "6.94e-05 ± 1.1e-05", "unit": "s⁻¹"}]}
